According to US20150246949A1, “Desmoglein 2 (DSG2) Binding Proteins and Uses Therefor” (UNIVERSITY OF WASHINGTON THROUGH ITS CENTER FOR …, priority 2012, published 2015):

How the values were obtained:
[1] = biological target: T1, Recombinant human DSG2 protein (Leinco Technologies) (human, UniProt Q14126 50-609); test: SPR (BIAcore 3000), DSG2 immobilised on CM4 chip, knob injected
T1 construct: also called soluble DSG2; soluble recombinant DSG2
T1 sequence: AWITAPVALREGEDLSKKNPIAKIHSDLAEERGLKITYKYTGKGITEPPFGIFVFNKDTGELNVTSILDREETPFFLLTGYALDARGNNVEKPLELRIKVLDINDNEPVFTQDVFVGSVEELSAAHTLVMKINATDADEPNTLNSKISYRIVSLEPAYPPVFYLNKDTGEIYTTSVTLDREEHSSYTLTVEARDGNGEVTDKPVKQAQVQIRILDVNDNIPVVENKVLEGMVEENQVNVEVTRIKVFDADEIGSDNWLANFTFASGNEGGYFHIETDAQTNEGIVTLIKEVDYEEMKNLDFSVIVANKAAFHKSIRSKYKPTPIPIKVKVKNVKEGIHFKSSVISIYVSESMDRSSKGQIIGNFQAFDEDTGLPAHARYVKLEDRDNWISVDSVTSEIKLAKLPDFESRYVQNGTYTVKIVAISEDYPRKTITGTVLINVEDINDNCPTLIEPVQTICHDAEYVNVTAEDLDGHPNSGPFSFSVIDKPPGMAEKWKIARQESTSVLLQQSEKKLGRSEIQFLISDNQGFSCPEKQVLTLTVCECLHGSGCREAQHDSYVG

[2] = biological target: T1, Recombinant human DSG2 protein (Leinco …); test: SPR (BIAcore 3000), DSG2 immobilised, BIAeval; as printed in this row, but kd/ka of the row gives 24.9 nM and paragraph 239 gives 405-fold over wt: the KD cells of Y250F and V239D look interchanged on the sheet
[3] = biological target: T1, Recombinant human DSG2 protein (Leinco …); test: SPR (BIAcore 3000), DSG2 immobilised on the sensor chip, knobs injected at 2.5 to 10 µg/ml, BIAeval
[4] = biological target: T1, Recombinant human DSG2 protein (Leinco …); test: SPR (BIAcore 3000), DSG2 immobilised, BIAeval; as printed in this row, but kd/ka of the row gives 11.4 nM and paragraph 239 gives 885-fold over wt: the KD cells of Y250F and V239D look interchanged on the sheet
[5] = biological target: T1, Recombinant human DSG2 protein (Leinco …); test: not given; SPR on immobilised DSG2 by the context (FIG. 7)
[6] = biological target: T1, Recombinant human DSG2 protein (Leinco …); test: Western blot of the blotted knob probed with soluble hDSG2, anti-DSG2 (6D8), HRP-anti-mouse IgG [upper panel]
soluble CD46 = biological target: T2, soluble CD46 (UniProt P15529 35-343); test: Western blot, soluble CD46 as probe, anti-CD46 mAb
T2 construct: also called sCD46
T2 sequence: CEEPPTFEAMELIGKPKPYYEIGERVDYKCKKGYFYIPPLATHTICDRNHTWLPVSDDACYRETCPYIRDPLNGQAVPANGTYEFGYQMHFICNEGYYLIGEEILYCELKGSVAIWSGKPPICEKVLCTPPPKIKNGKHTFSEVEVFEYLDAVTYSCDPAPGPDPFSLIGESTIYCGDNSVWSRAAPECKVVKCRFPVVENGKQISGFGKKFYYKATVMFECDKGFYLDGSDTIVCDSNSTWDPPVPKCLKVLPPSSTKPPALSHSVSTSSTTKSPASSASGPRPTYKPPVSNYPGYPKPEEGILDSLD

[7] = biological target: T3, human DSG2 on cells (HeLa cells; polarized T84 cells) (human, UniProt Q14126 50-1118); test: cell-based or functional assay
T3 sequence: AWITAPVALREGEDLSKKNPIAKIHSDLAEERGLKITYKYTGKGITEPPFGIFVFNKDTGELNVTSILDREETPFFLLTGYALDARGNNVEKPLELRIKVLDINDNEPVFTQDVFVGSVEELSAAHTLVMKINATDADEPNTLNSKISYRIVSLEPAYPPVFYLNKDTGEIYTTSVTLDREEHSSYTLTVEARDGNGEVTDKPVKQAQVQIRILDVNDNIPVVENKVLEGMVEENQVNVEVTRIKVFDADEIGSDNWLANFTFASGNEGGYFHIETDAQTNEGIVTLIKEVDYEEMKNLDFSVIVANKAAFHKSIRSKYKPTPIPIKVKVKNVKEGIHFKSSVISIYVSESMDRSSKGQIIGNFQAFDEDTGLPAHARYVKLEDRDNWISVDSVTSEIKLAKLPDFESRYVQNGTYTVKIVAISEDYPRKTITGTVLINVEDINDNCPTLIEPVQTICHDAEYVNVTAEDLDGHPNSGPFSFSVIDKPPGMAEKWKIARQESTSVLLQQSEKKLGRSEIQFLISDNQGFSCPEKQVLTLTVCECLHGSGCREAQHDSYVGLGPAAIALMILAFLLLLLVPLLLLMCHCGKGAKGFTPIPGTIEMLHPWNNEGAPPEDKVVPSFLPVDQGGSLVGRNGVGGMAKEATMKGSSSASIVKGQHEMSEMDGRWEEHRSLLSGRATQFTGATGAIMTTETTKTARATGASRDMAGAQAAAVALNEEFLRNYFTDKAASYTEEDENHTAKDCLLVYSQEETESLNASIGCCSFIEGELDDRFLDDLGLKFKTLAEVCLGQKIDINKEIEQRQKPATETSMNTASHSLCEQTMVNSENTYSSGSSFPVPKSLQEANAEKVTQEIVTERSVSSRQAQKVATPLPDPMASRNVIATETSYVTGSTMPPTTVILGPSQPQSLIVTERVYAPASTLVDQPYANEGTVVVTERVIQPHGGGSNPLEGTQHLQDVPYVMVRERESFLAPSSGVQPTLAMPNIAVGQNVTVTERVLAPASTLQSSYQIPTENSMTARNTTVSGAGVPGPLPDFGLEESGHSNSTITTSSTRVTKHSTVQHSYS

[8] = biological target: T3, human DSG2 on cells (HeLa cells; …); test: cell-based or functional assay; remark: listed apart in the source

B1: Ad3 fiber knob mutant V239D without dimerization domain (ligand)
chain: NKLCSKLGNGLTFDSSNSIALKNNTLWTGPKPEANCIIEYGKQNPDSKLTLILVKNGGIVNGYVTLMGASDYVNTLFKNKNVSINVELYFDATGHILPDSSSLKTDLELKYKQTADFSARGFMPSTTAYPFDLPNAGTHNENYIFGQCYYKASDGALFPLEVTVMLNKRLPDSRTSYVMTFLWSLNAGLAPETTQATLITSPFTFSYIREDD
notes: range 108-319; also called V239D/noDD; not shown: N-terminal 6-His tag of pQE30 and linker
[1]
  fold higher affinity than wt Ad3knob/noDD: 405 fold
[2]
  Kd: 11.4 nM
[3]
  koff: 0.00266 s⁻¹
  kon: 107000 M⁻¹ s⁻¹

B2: Ad3 fiber knob mutant Y250F without dimerization domain (ligand)
chain: NKLCSKLGNGLTFDSSNSIALKNNTLWTGPKPEANCIIEYGKQNPDSKLTLILVKNGGIVNGYVTLMGASDYVNTLFKNKNVSINVELYFDATGHILPDSSSLKTDLELKYKQTADFSARGFMPSTTAYPFVLPNAGTHNENFIFGQCYYKASDGALFPLEVTVMLNKRLPDSRTSYVMTFLWSLNAGLAPETTQATLITSPFTFSYIREDD
notes: range 108-319; also called Y250F/noDD; not shown: N-terminal 6-His tag of pQE30 and linker
[4]
  Kd: 24.9 nM
[1]
  fold higher affinity than wt Ad3knob/noDD: 885 fold
[3]
  koff: 0.00264 s⁻¹
  kon: 232000 M⁻¹ s⁻¹

B3: JO-4 (affinity-enhanced version of JO-1) (designed binder)
chain: MRGSHHHHHHGSKVSALKEKVSALKEKVSALKEKVSALKEKVSALKEGSGGGSGGGSGGGSNSIALKNNTLWTGPKPEANCIIEYGKQNPDSKLTLILVKNGGIVNGYVTLMGASDYVNTLFKNKNVSINVELYFDATGHILPDSSSLKTDLELKYKQTADFSARGFMPSTTAYPFVLPNAGTHNENFIFGQCYYKASDGALFPLEVTVMLNKRLPDSRTSYVMTFLWSLNAGLAPETTQATLITSPFTFSYIREDD
[5]
  Kd: 11.4 nM

B4: Ad3-S/Kn (ligand)
chain: NSIALKNNTLWTGPKPEANCIIEYGKQNPDSKLTLILVKNGGIVNGYVTLMGASDYVNTLFKNKNVSINVELYFDATGHILPDSSSLKTDLELKYKQTADFSARGFMPSTTAYPFVLPNAGTHNENYIFGQCYYKASDGALFPLEVTVMLNKRLPDSRTSYVMTFLWSLNAGLAPETTQATLITSPFTFSYIREDD
notes: also called wild-type Ad3 fibers
[6]
  binding result: no binding
Soluble CD46
  binding result: no binding

B5: JO-1 (self-dimerizing trimeric wild-type Ad3 fiber knob) (designed binder)
chain: MKVSALKEKVSALKEKVSALKEKVSALKEKVSALKEGSGGGSGGGSGGGSNSIALKNNTLWTGPKPEANCIIEYGKQNPDSKLTLILVKNGGIVNGYVTLMGASDYVNTLFKNKNVSINVELYFDATGHILPDSSSLKTDLELKYKQTADFSARGFMPSTTAYPFVLPNAGTHNENYIFGQCYYKASDGALFPLEVTVMLNKRLPDSRTSYVMTFLWSLNAGLAPETTQATLITSPFTFSYIREDD
[7]
  IC50 (read off the curve), GFP MFI after Ad3-GFP infection of HeLa cells: ~0.6 µg/mL
[8]
  IC50 (read off the curve), % GFP-positive cells after Ad3-GFP infection of HeLa cells: ~5 µg/mL
